# Key:
# Assay in all cases: protection of ribosome-bound eEF2 from [14C]ADP-ribosylation by diphtheria toxin
# [1] = molecular target: Salt washed yeast 80S ribosomes with ribosomal protein L3 K236A/K237A (yeast (S. cerevisiae)) (UniProt P14126)
# [2] = molecular target: Salt washed yeast 80S ribosomes with ribosomal protein L3 K241A/R244A (yeast (S. cerevisiae)) (UniProt P14126)
# [3] = molecular target: Salt washed yeast 80S ribosomes with wild-type ribosomal protein L3 (yeast (S. cerevisiae)) (UniProt P14126)
# [4] = molecular target: Salt washed yeast 80S ribosomes with ribosomal protein L3 K236A (yeast (S. cerevisiae)) (UniProt P14126)
# [5] = molecular target: Salt washed yeast 80S ribosomes with ribosomal protein L3 K236A/R247A (yeast (S. cerevisiae)) (UniProt P14126)
# [6] = molecular target: Salt washed yeast 80S ribosomes with ribosomal protein L3 R247A (yeast (S. cerevisiae)) (UniProt P14126)
# [7] = molecular target: Salt washed yeast 80S ribosomes with ribosomal protein L3 R232A (yeast (S. cerevisiae)) (UniProt P14126)
# [8] = molecular target: Salt washed yeast 80S ribosomes with ribosomal protein L3 K237A (yeast (S. cerevisiae)) (UniProt P14126)
substance,measurement,setting,value
"Eukaryotic elongation factor 2 (eEF2), 6xHis-tagged (from UniProt P32324 1-842) (natural protein)",Kd,[1],84 nM
same,Kd,[2],229 nM
same,Kd,[3],383 nM
same,Kd,[4],312 nM
same,Kd,[5],110 nM
same,Kd,[6],46.6 nM
same,Kd,[7],341 nM
same,Kd,[8],342 nM
